The results in this text go back to US20040142894, “Modulation of cellular proliferation” (published 2004).

The data set addresses T1, HiNF-P (enriched chromatographic fraction, HeLa) (Homo sapiens, UniProt Q9BQA5 Q9BQA5:1-517).
T1 sequence: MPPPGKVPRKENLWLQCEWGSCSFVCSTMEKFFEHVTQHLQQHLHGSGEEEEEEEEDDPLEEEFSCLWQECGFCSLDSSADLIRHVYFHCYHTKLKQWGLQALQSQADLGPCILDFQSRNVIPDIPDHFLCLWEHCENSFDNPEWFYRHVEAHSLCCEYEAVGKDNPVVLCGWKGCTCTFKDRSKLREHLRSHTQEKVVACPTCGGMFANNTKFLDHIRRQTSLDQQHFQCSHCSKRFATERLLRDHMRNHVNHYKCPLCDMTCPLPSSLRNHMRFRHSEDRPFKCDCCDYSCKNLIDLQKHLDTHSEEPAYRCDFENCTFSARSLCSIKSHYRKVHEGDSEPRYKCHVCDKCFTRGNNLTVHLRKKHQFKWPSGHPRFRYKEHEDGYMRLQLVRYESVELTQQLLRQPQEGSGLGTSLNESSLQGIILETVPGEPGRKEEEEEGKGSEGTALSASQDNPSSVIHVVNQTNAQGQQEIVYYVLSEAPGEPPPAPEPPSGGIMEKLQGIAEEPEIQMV
Briefly: UV cross-linking, 65 kDa; 100 uM Zn2+ and Mg2+. The note with it: label: 32P-dCTP. The protocol: FIG. 6B is a representation of an autoradiogram showing UV cross-linking of HiNF-P/Site II complexes. Oligonucleotides spanning wild type (WT) and mutant (Pmut) Site II sequences were labeled with BrdUTP and ³²P-dCTP then incubated with a fraction (7.5 μl; 0.4M KCl) containing enriched HiNF-P binding activity. The reaction mixture was exposed to UV light (305 nm) for 60 minutes and then digested with DNase I and MNase. Cross-linked, labeled proteins were analyzed using 10% SDS-PAGE and subjected to autoradiography. Molecular weight makers are shown at the left. The arrow indicates the 65 kDa HiNF-P-DNA complex.
Ultraviolet cross-linking experiments were performed by adapting a method described in Ausubel, F. M. et al. (Current Protocols in Molecular Biology. Greene and Wiley, New York, 1989). A radiolabeled and BrdU-substituted probe was prepared by incubating 20 pmol of partially double-stranded HiNF-P-specific oligonucleotide (top strand: 5′-CGC TTT CGG-3′, SEQ ID NO:13; Bottom strand: 5′-CAAGAGTATCGGACCAGATTGAAAACCGAAAGCG-3′, SEQ ID NO:14) with 1 μl of 50× dNTP/BrdUTP solution (containing 50 μM DATP, 50 μM dGTP, 37.5 μM dTTP and 12.5 μM BrdUTP), 150 μCi α-³²P-dCTP and 1 μl of a solution containing 5 mM DTT and 1 μg/μl BSA, in a total reaction volume of 25 μl. […] Following nuclease digestion, the products were analyzed by 10% SDS-PAGE.

B1: BrdU-substituted Site II probe (dsDNA)
DNA 1: CAAGAGTATCGGACCAGATTGAAAACCGAAAGCG
DNA 2: CGCTTTCGGTTTTCAATCTGGTCCGATACTCTTG
modifications: partial BrdU substitution for T in filled-in strand
Regarding B1, the binding result is reported as “binds”.
